From the RNAGym collection of RNA variant scans (doi:10.1073/pnas.2313332121)
This sample holds only a part of the variants without activity.

B1: TPR 5TU (parent)
chain: GGAUCUUCUCGAUCUAACAAAAAAGACAAAUCUGCCACAAAGCUUGAGAGCAUCUUCGGAUGCAGAGGCGGCAGCCUUCGGUGGCGCGAUAGCGCCAACGUUCUCAACUAUGACACGCAAAACGCGUGCUCCGUUGAAUGGAGUUUAUCAUG

Variants of: B1
Assay: polymerase ribozyme fitness, log enrichment relative to wild type (log ratio); higher = more active; in vitro selection for triplet polymerase activity
Summary of the method: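 Fitness compares each genotype's enrichment to that of the wild type on a logarithmic scale, averaging replicates with inverse-variance weights. The logarithm is base 2. Enrichment came from Illumina sequencing of input and output libraries after one triplicate round of in vitro selection, which included frozen incubation at −7 °C, of PCR-built, transcribed mutant libraries of each subunit of a heterodimeric triplet polymerase ribozyme. Only genotypes with ≥10 input reads and ≥1 read per output were kept.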

Variant	polymerase ribozyme fitness (log ratio)
GGAUCUUCUCGAUCUAACAAAAAAGACAAAUCUGCCACAAAGCUUGAGAGCAUCUUCGGAUGCAGAGGCGGCAGCCUUCGGGGGCGCGAUAGCGCCAACGUUCUCAACUAUGACACGCAAAACGCGUGCUCCGUUGAAUGUAGUUUAUCAUG	1.45
GGAUCUUCUCGAUCUAACAAAAAAGACAAAUCUGCCACAAAGCUUGAGAGCAUCUUCGGAUGCAGAGGCGGCAGCCUUCGGGGGCGCGAUAGCGCCAACGUUCUCAACUAUGACACGCAAAACGGGUGCUCCGUUGAAUGGAGUUUAUCAUG	-1.76
GGAUCUUCUCGAUCUAACAAAAAAGACAAAUCUGCCACAAAGCUUGAGAGCAUCUUCGGAUGCAGAGGCGGCAGCCUUCGGUAGCGCGAUAGCGCCAACGUUCUCAACUCUGACACGCAAAAGGCGUGCUCCGUUGAAUGGAGUUUAUCAUG	≤ -4.2
GGAUCUUCUCGAUCUAACAAAAAAGACAAAUCUGCCACAAAGCUUGAGAGCAUCUUCGGAUGCAGAGGCGGCAGCCUUCGGGGGCGCGAUAGCGCCAACGGUCUCAACUAUGACACGCAAAACGCGUGCUCCGUUGAAUGGAGUUUAUCAUG	0.433
GGAUCUUCUCGAUCUAACAAAAAAGACAAAUCUGCCACAAAGCUUGAGAGCAUCUUCGGAUGCAGAGGCGGCAGCCUUCGGGGGCGCGAUAGCGCCAACGUUCCCAACUAUGACAUGCAAAACGUGUGCUCCGUUGACUGGAGUUUAUCAUG	≤ -4.2
GGAUCUUCUCGAUCUAACAAAAAAGACAAAUCUGCCACAAAGCUUGAGAGCAUCUUCGGAUGCAGAGGCGGCAGCCUUCGGGGGCGCGAUAGCGGCAACGUUCUCAACUAUGACACGCAAAACGCCUGCUCCGUUGAAUGGAGUUUAUCAUG	-1.07
GGAUCUUCUCGAUCUAACAAAAAAGACAAAUCUGCCACAAAGCUUGAGAGCAUCUUCGGAUGCAGAGGCGGCAGCCUUCGGUAGCGCGAUGGUGCCAACGUUCUCAACUAUGACACGCAAAACGCGUGCUCCGUUGAAUGGAGUUUAUAAUG	≤ -4.2
GGAUCUUCUCGAUCUAACAAAAAAGACAAAUCUGCCACAAAGCUUGAGAGCAUCUUCGGAUGCAGAGGCGGCAGCCUUCGGGGGCGCGAUAGCGCUAACGUUCUCAACUAUGACACGCAAAACGCGUGCUCCGUUGCAUGGAGUUUAUCAUG	-3.87
GGAUCUUCUCGAUCUAACAAAAAAGACAAAUCUGCCACAAAGCUUGAGAGCAUCUUCGGAUGCAGAGGCGGCAGCCUUCGGUAGCGCGAUAGCGCCAACGUUCUCAACUAUGACCCGCAAAUCGCGUGCUCCGAUGAAUGGAGUUUAUCAUG	-3.03
GGAUCUUCUCGAUCUAACAAAAAAGACAAAUCUGCCACAAAGCUUGAGAGCAUCUUCGGAUGCAGAGGCGGCAGCCUUCGGUAGCGCGAUAGCGCCUACGUUCUCAACUAUGACACGCAAAACGCGUGCUCCGUUGAAUGGAGUUUAUCAUG	0.538
GGAUCUUCUCGAUCUAACAAAAAAGACAAAUCUGCCACAAAGCUUGAGAGCAUCUUCGGAUGCAGAGGCGGCAGCCUUCGGUAGCGCGAUAGCGCCGACGUUCUCAACUAUGACACGCAAAACGCGUGCUCCGUUGAAUGGAGUUUAUCAUG	-0.594
GGAUCUUCUCGAUCUAACAAAAAAGACAAAUCUGCCACAAAGCUUGAGAGCAUCUUCGGAUGCAGAGGCGGCAGCCUUCGGGGGCGCGAUAACGCCAACGUUCUCAACUAUGACACGCAAAACGCGUGCUCCGUUGAAUGGAGUUUAUCAUG	-2.96
GGAUCUUCUCGAUCUAACAAAAAAGACAAAUCUGCCACAAAGCUUGAGAGCAUCUUCGGAUGCAGAGGCGGCAGCCUUCGGGGACUCGAUAGCGCCAACGUUCUCAACUAUGACACGGAAAACGCGUGCUCCGUUGAAUGGAGUUUAUCAUG	≤ -4.2
GGAUCUUCUCGAUCUAACAAAAAAGACAAAUCUGCCACAAAGCUUGAGAGCAUCUUCGGAUGCAGAGGCGGCAGCCUUCGGGGGCGCGAUAGAGCCAACGUUCUCAACUAUGACACGCAAAACGCGUGCUCCGUUGAAUGGAGUUUAUCAUG	-2.46
GGAUCUUCUCGAUCUAACAAAAAAGACAAAUCUGCCACAAAGCUUGAGAGCAUCUUCGGAUGCAGAGGCGGCAGCCUUCGGUAGCGCGAUUGCGCCAACUUUCUCAACUAUGACACGCAAAACGCGUGCUCCGUUGAAUGGAGUUUAUCAUG	≤ -4.2
GGAUCUUCUCGAUCUAACAAAAAAGACAAAUCUGCCACAAAGCUUGAGAGCAUCUUCGGAUGCAGAGGCGGCAGCCUUCGGGGACGCGAUAGCGCCAACGUUCUCAACUAUGACACGCAAAACGCGUGCUCCGUUGAAUGGAGUCUAUCAUG	-0.385
GGAUCUUCUCGAUCUAACAAAAAAGACAAAUCUGCCACAAAGCUUGAGAGCAUCUUCGGAUGCAGAGGCGGCAGCCUUCGGGGUCGCGAUAGCGCCAAUGUUCUCAACUAUGACACGCAAAACGCGUCCUCCGUUGAAUGGAGUUUAUCAUG	≤ -4.2
GGAUCUUCUCGAUCUAACAAAAAAGACAAAUCUGCCACAAAGCUUGAGAGCAUCUUCGGAUGCAGAGGCGGCAGCCUUCGGUAGCGCGAUAGCGCCAACGUUCUCAACUAUGACGCGCAAAACGCGUGCUCCGUUGAAUGGAGUUUAUCAUG	-1.64
GGAUCUUCUCGAUCUAACAAAAAAGACAAAUCUGCCACAAAGCUUGAGAGCAUCUUCGGAUGCAGAGGCGGCAGCCUUCGGGGGCGCGAUAGCGCCAACGUUCUCAACUAUGACACGCAAAACGCGUUCUCCGUUGAAUGGAGUUUAUCAUG	-3.35
